B1: Far upstream element-binding protein 1, residues 98 to 169; numbered along this chain, Q96AE4 (parent)
chain: RSVMTEEYKVPDGMVGFIIGRGGEQISRIQQESGCKIQIAPDSGGLPERSCMLTGTPESVQSAKRLLDQIVE

± gives the uncertainty stated by the source.

This series covers variants of B1. Put plainly: abundance fitness (aPCA) (normalised: wild type 0, dead -1); higher = more abundant; growth selection in yeast, the domain comes from the species named. The following applies: Homo sapiens.
As for RSVMTEEYKVPDGMVGFIISRGGEQISRIQQESGCKIQIAPDSGGLPERSCMLTGTPESVQSAKRLLDQIVE [G20S], the abundance fitness is -0.078 ± 0.027.

For the variant RSVMTEEYKVPDGMVGFIIVRGGEQISRIQQESGCKIQIAPDSGGLPERSCMLTGTPESVQSAKRLLDQIVE [G20V], the abundance fitness was -0.253 ± 0.027.

RSVMTEEYKVPDGMVGFIIQRGGEQISRIQQESGCKIQIAPDSGGLPERSCMLTGTPESVQSAKRLLDQIVE [G20Q]: the abundance fitness is -0.178 ± 0.034.

Turning to RSVMTEEYKVPDGMVGFIITRGGEQISRIQQESGCKIQIAPDSGGLPERSCMLTGTPESVQSAKRLLDQIVE [G20T], the abundance fitness was -0.182 ± 0.032.

Turning to RSVMTEEYKVPDGMVGFIINRGGEQISRIQQESGCKIQIAPDSGGLPERSCMLTGTPESVQSAKRLLDQIVE [G20N], the abundance fitness is -0.115 ± 0.048.

With RSVMTEEYKVPDGMVGFIIRRGGEQISRIQQESGCKIQIAPDSGGLPERSCMLTGTPESVQSAKRLLDQIVE [G20R], the abundance fitness is -0.112 ± 0.024.

Turning to RSVMTEEYKVPDGMVGFIIWRGGEQISRIQQESGCKIQIAPDSGGLPERSCMLTGTPESVQSAKRLLDQIVE [G20W], the abundance fitness is -0.321 ± 0.033.

Take RSVMTEEYKVPDGMVGFIIYRGGEQISRIQQESGCKIQIAPDSGGLPERSCMLTGTPESVQSAKRLLDQIVE [G20Y]: the abundance fitness is -0.279 ± 0.054.

For the variant RSVMTEEYKVPDGMVGFIIGSGGEQISRIQQESGCKIQIAPDSGGLPERSCMLTGTPESVQSAKRLLDQIVE [R21S], the abundance fitness amounted to 0.035 ± 0.14.

RSVMTEEYKVPDGMVGFIIGPGGEQISRIQQESGCKIQIAPDSGGLPERSCMLTGTPESVQSAKRLLDQIVE [R21P]: the abundance fitness is -0.027 ± 0.13.

For the variant RSVMTEEYKVPDGMVGFIIGVGGEQISRIQQESGCKIQIAPDSGGLPERSCMLTGTPESVQSAKRLLDQIVE [R21V], the abundance fitness was -0.11 ± 0.21.

For RSVMTEEYKVPDGMVGFIIGHGGEQISRIQQESGCKIQIAPDSGGLPERSCMLTGTPESVQSAKRLLDQIVE [R21H], the abundance fitness was -0.118 ± 0.12.

Turning to RSVMTEEYKVPDGMVGFIIGQGGEQISRIQQESGCKIQIAPDSGGLPERSCMLTGTPESVQSAKRLLDQIVE [R21Q], the abundance fitness turned out to be 0.046 ± 0.3.

Turning to RSVMTEEYKVPDGMVGFIIGCGGEQISRIQQESGCKIQIAPDSGGLPERSCMLTGTPESVQSAKRLLDQIVE [R21C], the abundance fitness is -0.119 ± 0.21.

Consider RSVMTEEYKVPDGMVGFIIGEGGEQISRIQQESGCKIQIAPDSGGLPERSCMLTGTPESVQSAKRLLDQIVE [R21E], for which the abundance fitness was -0.251 ± 0.28.

Turning to RSVMTEEYKVPDGMVGFIIGRGGEGISRIQQESGCKIQIAPDSGGLPERSCMLTGTPESVQSAKRLLDQIVE [Q25G], the abundance fitness was -0.035 ± 0.022.

RSVMTEEYKVPDGMVGFIIGRGGENISRIQQESGCKIQIAPDSGGLPERSCMLTGTPESVQSAKRLLDQIVE [Q25N]: the abundance fitness is -0.107 ± 0.048.

Consider RSVMTEEYKVPDGMVGFIIGRGGEDISRIQQESGCKIQIAPDSGGLPERSCMLTGTPESVQSAKRLLDQIVE [Q25D], for which the abundance fitness was -0.071 ± 0.04.

For RSVMTEEYKVPDGMVGFIIGRGGECISRIQQESGCKIQIAPDSGGLPERSCMLTGTPESVQSAKRLLDQIVE [Q25C], the abundance fitness was -0.054 ± 0.034.

With RSVMTEEYKVPDGMVGFIIGRGGEHISRIQQESGCKIQIAPDSGGLPERSCMLTGTPESVQSAKRLLDQIVE [Q25H], the abundance fitness was -0.021 ± 0.043.

Turning to RSVMTEEYKVPDGMVGFIIGRGGELISRIQQESGCKIQIAPDSGGLPERSCMLTGTPESVQSAKRLLDQIVE [Q25L], the abundance fitness was -0.108 ± 0.027.

On to RSVMTEEYKVPDGMVGFIIGRGGEEISRIQQESGCKIQIAPDSGGLPERSCMLTGTPESVQSAKRLLDQIVE [Q25E], for which the abundance fitness was determined as 0.036 ± 0.03.

For RSVMTEEYKVPDGMVGFIIGRGGEMISRIQQESGCKIQIAPDSGGLPERSCMLTGTPESVQSAKRLLDQIVE [Q25M], the abundance fitness was -0.027 ± 0.038.

For RSVMTEEYKVPDGMVGFIIGRGGEAISRIQQESGCKIQIAPDSGGLPERSCMLTGTPESVQSAKRLLDQIVE [Q25A], the abundance fitness is -0.088 ± 0.027.

With RSVMTEEYKVPDGMVGFIIGRGGEKISRIQQESGCKIQIAPDSGGLPERSCMLTGTPESVQSAKRLLDQIVE [Q25K], the abundance fitness was -0.013 ± 0.038.

As to RSVMTEEYKVPDGMVGFIIGRGGEFISRIQQESGCKIQIAPDSGGLPERSCMLTGTPESVQSAKRLLDQIVE [Q25F], the abundance fitness was -0.242 ± 0.054.

For RSVMTEEYKVPDGMVGFIIGRGGSQISRIQQESGCKIQIAPDSGGLPERSCMLTGTPESVQSAKRLLDQIVE [E24S], the abundance fitness is -0.026 ± 0.029.

In the case of RSVMTEEYKVPDGMVGFIIGRGGDQISRIQQESGCKIQIAPDSGGLPERSCMLTGTPESVQSAKRLLDQIVE [E24D], the abundance fitness is -0.064 ± 0.046.

For RSVMTEEYKVPDGMVGFIIGRGGTQISRIQQESGCKIQIAPDSGGLPERSCMLTGTPESVQSAKRLLDQIVE [E24T], the abundance fitness is -0.035 ± 0.037.

Consider RSVMTEEYKVPDGMVGFIIGRGGHQISRIQQESGCKIQIAPDSGGLPERSCMLTGTPESVQSAKRLLDQIVE [E24H], for which the abundance fitness was determined as 0.026 ± 0.058.

With RSVMTEEYKVPDGMVGFIIGRGGVQISRIQQESGCKIQIAPDSGGLPERSCMLTGTPESVQSAKRLLDQIVE [E24V], the abundance fitness is -0.072 ± 0.028.

For the variant RSVMTEEYKVPDGMVGFIIGRGGQQISRIQQESGCKIQIAPDSGGLPERSCMLTGTPESVQSAKRLLDQIVE [E24Q], the abundance fitness was -0.084 ± 0.039.

Consider RSVMTEEYKVPDGMVGFIIGRGGFQISRIQQESGCKIQIAPDSGGLPERSCMLTGTPESVQSAKRLLDQIVE [E24F], for which the abundance fitness is -0.013 ± 0.061.

In the case of RSVMTEEYKVPDGMVGFIIGRGGAQISRIQQESGCKIQIAPDSGGLPERSCMLTGTPESVQSAKRLLDQIVE [E24A], the abundance fitness is -0.032 ± 0.03.

For RSVMTEEYKVPDGMVGFIIGRGGMQISRIQQESGCKIQIAPDSGGLPERSCMLTGTPESVQSAKRLLDQIVE [E24M], the abundance fitness was -0.093 ± 0.041.

For the variant RSVMTEEYKVPDGMVGFIIGRGGNQISRIQQESGCKIQIAPDSGGLPERSCMLTGTPESVQSAKRLLDQIVE [E24N], the abundance fitness is -0.163 ± 0.074.

With RSVMTEEYKVPDGMVGFIIGRGGLQISRIQQESGCKIQIAPDSGGLPERSCMLTGTPESVQSAKRLLDQIVE [E24L], the abundance fitness was -0.108 ± 0.03.

Values taken from the Human Domainome abundance scans (Beltran et al. 2025).
